Test results published in the supplement of paper PMC9876800.

System: peptide library, one residue held at a place counted from the S/T acceptor
Assay: relative phosphorylation of the sub-library (ratio to the mean residue at this position); higher = residue favoured
In short: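 Human or orthologue kinase constructs, purified and recombinant, were incubated under kinase-specific conditions in 384-well plates with biotinylated degenerate peptide sub-libraries. Each sub-library fixed one residue at one position around a central Ser/Thr. Incubations lasted 90 min with peptides at 50 μM and 50 μM ATP spiked with γ-32P-ATP, after which spots on streptavidin membranes were phosphorimaged and quantified by densitometry. Relative sub-library phosphorylation is a ratio to the mean residue at that position.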

Sequence of WNK4, construct: aa1-444, human (Q96J92 1-444, looked up): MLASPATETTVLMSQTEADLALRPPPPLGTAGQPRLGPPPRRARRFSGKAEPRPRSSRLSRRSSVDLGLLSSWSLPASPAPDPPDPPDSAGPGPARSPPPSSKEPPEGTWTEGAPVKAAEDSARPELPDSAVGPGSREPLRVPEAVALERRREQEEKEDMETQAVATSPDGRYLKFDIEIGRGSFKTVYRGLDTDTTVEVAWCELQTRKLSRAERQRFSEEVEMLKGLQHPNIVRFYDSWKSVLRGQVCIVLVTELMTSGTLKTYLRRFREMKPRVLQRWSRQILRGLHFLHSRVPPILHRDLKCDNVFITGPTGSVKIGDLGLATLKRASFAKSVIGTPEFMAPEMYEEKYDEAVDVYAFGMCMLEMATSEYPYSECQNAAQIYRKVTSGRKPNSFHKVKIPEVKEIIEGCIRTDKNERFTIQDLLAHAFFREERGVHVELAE

WNK4, construct: aa1-444, human (from UniProt Q96J92)
relative phosphorylation
Settings	at +1	at +2	at +3	at +4	at -1	at -2	at -3	at -4	at -5
A fixed	0.658	0.979	0.693	0.885	1.14	1.49	0.929	0.894	0.916
D fixed	0.249	0.57	0.62	0.54	0.287	0.305	0.389	0.579	0.489
E fixed	0.247	0.452	0.518	0.638	0.467	0.305	0.524	0.615	0.565
F fixed	1.13	0.977	2.1	1.3	0.788	0.821	0.748	0.864	1.21
G fixed	0.88	1.12	0.755	0.865	1.18	2.7	1.06	0.973	0.89
H fixed	0.813	0.973	1.35	1.12	1.05	1.54	1.16	1.21	1.21
I fixed	1.2	1.79	0.919	1.24	0.796	0.754	0.947	0.9	1.07
K fixed	0.918	0.872	1.06	1.29	1.66	1.03	1.64	1.6	1.27
L fixed	1.42	1.24	1.02	0.92	0.833	0.637	0.88	0.79	1.14
M fixed	1.96	1.31	1.04	1.1	1.58	0.708	1.02	0.924	0.986
N fixed	0.945	0.664	0.691	0.811	0.636	0.614	0.746	0.867	0.807
P fixed	0.242	0.318	0.514	0.713	0.452	1.31	0.93	0.674	0.628
Q fixed	1.17	0.522	0.565	0.673	0.952	0.573	0.741	0.88	0.639
R fixed	1.87	2.16	1.22	1.42	2.68	1.74	2.66	2.19	1.7
V fixed	0.973	1.16	0.848	0.969	0.812	0.972	0.959	0.877	0.891
W fixed	0.975	0.85	1.63	1.32	0.637	0.662	0.709	1.04	1.25
Y fixed	1.35	1.03	1.46	1.19	1.05	0.828	0.963	1.13	1.33
pThr fixed	0.386	0.407	0.388	0.617	0.444	0.683	0.809	0.732	0.731
pTyr fixed	0.565	0.537	0.612	0.674	0.727	0.471	0.708	0.527	0.764
